Data reported in patent publication US20130209454A1.

Legend:
Assay in all cases: cell-based or functional assay
[1] = molecular target: HIV-1 Env of strain 0815.v3.c3 (HIV-1)
[2] = molecular target: HIV-1 Env of strain 6535.3 (HIV-1)
[3] = molecular target: HIV-1 Env of strain Du422.1 (HIV-1)
[4] = molecular target: HIV-1 Env of strain CNE20 (HIV-1)
[5] = molecular target: HIV-1 Env of strain 6480.v4.c25 (HIV-1)
[6] = molecular target: HIV-1 Env of strain C3347.c11 (HIV-1)
[7] = molecular target: HIV-1 Env of strain AC10.0.29 (HIV-1)
[8] = molecular target: HIV-1 Env of strain CNE21 (HIV-1)
[9] = molecular target: HIV-1 Env of strain Ce0682_E4 (HIV-1)
[10] = molecular target: HIV-1 Env of strain ZM249M.PL1 (HIV-1)
[11] = molecular target: HIV-1 Env of strain X1193_c1 (HIV-1)
[12] = molecular target: HIV-1 Env of strain C1080.c03 (HIV-1)
[13] = molecular target: HIV-1 Env of strain 1054_07_TC4_1499 (HIV-1)
[14] = molecular target: HIV-1 Env of strain 928-28 (HIV-1)
[15] = molecular target: HIV-1 Env of strain 1056_10_TA11_1826 (HIV-1)
[16] = molecular target: HIV-1 Env of strain T250-4 (HIV-1)
[17] = molecular target: HIV-1 Env of strain Du156.12 (HIV-1)
[18] = molecular target: HIV-1 Env of strain 211-9 (HIV-1)
[19] = molecular target: HIV-1 Env of strain 3301.v1.c24 (HIV-1)
[20] = molecular target: HIV-1 Env of strain CNE53 (HIV-1)
[21] = molecular target: HIV-1 Env of strain 231966.c02 (HIV-1)
[22] = molecular target: HIV-1 Env of strain P1981_C5_3 (HIV-1)
[23] = molecular target: HIV-1 Env of strain 231965.c01 (HIV-1)
[24] = molecular target: HIV-1 Env of strain C2101.c01 (HIV-1)
[25] = molecular target: HIV-1 Env of strain ZM247v1(Rev-) (HIV-1)

| Binder | IC50, pseudovirus neutralization [1] [µg/mL] | IC50, pseudovirus neutralization [2] [µg/mL] | IC50, pseudovirus neutralization [3] [µg/mL] | IC50, pseudovirus neutralization [4] [µg/mL] | IC50, pseudovirus neutralization [5] [µg/mL] | IC50, pseudovirus neutralization [6] [µg/mL] | IC50, pseudovirus neutralization [7] [µg/mL] | IC50, pseudovirus neutralization [8] [µg/mL] | IC50, pseudovirus neutralization [9] [µg/mL] | IC50, pseudovirus neutralization [10] [µg/mL] | IC50, pseudovirus neutralization [11] [µg/mL] | IC50, pseudovirus neutralization [12] [µg/mL] | IC50, pseudovirus neutralization [13] [µg/mL] | IC50, pseudovirus neutralization [14] [µg/mL] | IC50, pseudovirus neutralization [15] [µg/mL] | IC50, pseudovirus neutralization [16] [µg/mL] | IC50, pseudovirus neutralization [17] [µg/mL] | IC50, pseudovirus neutralization [18] [µg/mL] | IC50, pseudovirus neutralization [19] [µg/mL] | IC50, pseudovirus neutralization [20] [µg/mL] | other results |
| --- | --- | --- | --- | --- | --- | --- | --- | --- | --- | --- | --- | --- | --- | --- | --- | --- | --- | --- | --- | --- | --- |
| NIH45-46^G54W (antibody, V domains shown) VH: QVRLSQSGGQMKKPGESMRLSCRASGYEFLNCPINWIRLAPGRRPEWMGWLKPRWGAVNYARKFQGRVTMTRDVYSDTAFLELRSLTSDDTAVYFCTRGKYCTARDYYNWDFEHWGRGAPVTVSS VL: EIVLTQSPATLSLSPGETAIISCRTSQSGSLAWYQQRPGQAPRLVIYSGSTRAAGIPDRFSGSRWGADYNLSISNLESGDFGVYYCQQYEFFGQGTKVQVDI | 0.001 | 0.03 | > 50 | 0.04 | 0.004 | 0.001 | 0.13 | 0.03 | 0.01 | 0.002 | 0.001 | 0.2 | 0.04 | 0.06 | 0.024 | 1.33 | 0.001 | 16.4 | 0.001 | 0.001 | IC50, pseudovirus neutralization [21]: 0.02 µg/mL; IC50, pseudovirus neutralization [22]: 0.02 µg/mL; IC50, pseudovirus neutralization [23]: 0.001 µg/mL; IC50, pseudovirus neutralization [24]: 0.04 µg/mL; IC50, pseudovirus neutralization [25]: 0.32 µg/mL |
| NIH45-46^G54W(HC), S28Y(LC) (antibody, V domains shown) VH: QVRLSQSGGQMKKPGESMRLSCRASGYEFLNCPINWIRLAPGRRPEWMGWLKPRWGAVNYARKFQGRVTMTRDVYSDTAFLELRSLTSDDTAVYFCTRGKYCTARDYYNWDFEHWGRGAPVTVSS VL: EIVLTQSPATLSLSPGETAIISCRTSQYGSLAWYQQRPGQAPRLVIYSGSTRAAGIPDRFSGSRWGADYNLSISNLESGDFGVYYCQQYEFFGQGTKVQVDI | 0.001 | 0.015 | 8.47 | 0.001 | 0.016 | 0.007 | 0.118 | 0.001 | 0.007 | 0.001 | 0.008 | 0.154 | 0.104 | 0.045 | 0.057 | 1.55 | 0.003 | 0.253 | 0.001 | 0.006 | IC50, pseudovirus neutralization [21]: 0.012 µg/mL; IC50, pseudovirus neutralization [22]: 0.012 µg/mL; IC50, pseudovirus neutralization [23]: 0.001 µg/mL; IC50, pseudovirus neutralization [24]: 0.044 µg/mL; IC50, pseudovirus neutralization [25]: 0.001 µg/mL |
